Bridges are numbered along the chain shown (N, C = ends). Where no end group is shown, it is not given here. [ ]: non-standard residue; d: D form. Aib = CC(C)(N)C(=O)O
T1: human GIP receptor (human, UniProt P48546 22-466)
T1 sequence (looked up): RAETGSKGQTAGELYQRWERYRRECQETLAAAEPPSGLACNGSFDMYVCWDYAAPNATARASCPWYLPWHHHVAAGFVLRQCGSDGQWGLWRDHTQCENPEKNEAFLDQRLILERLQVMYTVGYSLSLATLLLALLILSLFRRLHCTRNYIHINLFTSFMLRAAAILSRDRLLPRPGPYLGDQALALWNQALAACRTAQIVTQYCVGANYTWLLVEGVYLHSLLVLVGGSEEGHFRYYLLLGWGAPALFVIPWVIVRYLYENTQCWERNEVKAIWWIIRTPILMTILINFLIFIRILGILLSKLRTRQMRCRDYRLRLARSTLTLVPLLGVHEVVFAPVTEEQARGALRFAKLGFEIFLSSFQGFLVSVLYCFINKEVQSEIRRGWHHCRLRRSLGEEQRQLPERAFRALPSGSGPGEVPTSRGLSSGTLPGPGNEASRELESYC

B1: triple agonist of SEQ ID NO: 26 (peptide)
peptide: HXQGTFTSDCSKYLDSRAAQDFVQWLLDGGPSSGAPPPS
HELM: PEPTIDE1{H.[Aib].Q.G.T.F.T.S.D.C.S.K.Y.L.D.S.R.A.A.Q.D.F.V.Q.W.L.L.D.G.G.P.S.S.G.A.P.P.P.S.[am]}$$$$V2.0; N-terminus assumed
SMILES: CC(C)C[C@H](NC(=O)[C@H](CC(C)C)NC(=O)[C@H](Cc1c[nH]c2ccccc12)NC(=O)[C@H](CCC(N)=O)NC(=O)[C@@H](NC(=O)[C@H](Cc1ccccc1)NC(=O)[C@H](CC(=O)O)NC(=O)[C@H](CCC(N)=O)NC(=O)[C@H](C)NC(=O)[C@H](C)NC(=O)[C@H](CCCNC(=N)N)NC(=O)[C@H](CO)NC(=O)[C@H](CC(=O)O)NC(=O)[C@H](CC(C)C)NC(=O)[C@H](Cc1ccc(O)cc1)NC(=O)[C@H](CCCCN)NC(=O)[C@H](CO)NC(=O)[C@H](CS)NC(=O)[C@H](CC(=O)O)NC(=O)[C@H](CO)NC(=O)[C@@H](NC(=O)[C@H](Cc1ccccc1)NC(=O)[C@@H](NC(=O)CNC(=O)[C@H](CCC(N)=O)NC(=O)C(C)(C)NC(=O)[C@@H](N)Cc1c[nH]cn1)[C@@H](C)O)[C@@H](C)O)C(C)C)C(=O)N[C@@H](CC(=O)O)C(=O)NCC(=O)NCC(=O)N1CCC[C@H]1C(=O)N[C@@H](CO)C(=O)N[C@@H](CO)C(=O)NCC(=O)N[C@@H](C)C(=O)N1CCC[C@H]1C(=O)N1CCC[C@H]1C(=O)N1CCC[C@H]1C(=O)N[C@@H](CO)C(N)=O
B2: triple agonist of SEQ ID NO: 27 (peptide)
peptide: HXQGTFTSDYSKYLDERACQDFVQWLLDQGGPSSGAPPPS
HELM: PEPTIDE1{H.[Aib].Q.G.T.F.T.S.D.Y.S.K.Y.L.D.E.R.A.C.Q.D.F.V.Q.W.L.L.D.Q.G.G.P.S.S.G.A.P.P.P.S.[am]}$$$$V2.0; N-terminus assumed
SMILES: CC(C)C[C@H](NC(=O)[C@H](CC(C)C)NC(=O)[C@H](Cc1c[nH]c2ccccc12)NC(=O)[C@H](CCC(N)=O)NC(=O)[C@@H](NC(=O)[C@H](Cc1ccccc1)NC(=O)[C@H](CC(=O)O)NC(=O)[C@H](CCC(N)=O)NC(=O)[C@H](CS)NC(=O)[C@H](C)NC(=O)[C@H](CCCNC(=N)N)NC(=O)[C@H](CCC(=O)O)NC(=O)[C@H](CC(=O)O)NC(=O)[C@H](CC(C)C)NC(=O)[C@H](Cc1ccc(O)cc1)NC(=O)[C@H](CCCCN)NC(=O)[C@H](CO)NC(=O)[C@H](Cc1ccc(O)cc1)NC(=O)[C@H](CC(=O)O)NC(=O)[C@H](CO)NC(=O)[C@@H](NC(=O)[C@H](Cc1ccccc1)NC(=O)[C@@H](NC(=O)CNC(=O)[C@H](CCC(N)=O)NC(=O)C(C)(C)NC(=O)[C@@H](N)Cc1c[nH]cn1)[C@@H](C)O)[C@@H](C)O)C(C)C)C(=O)N[C@@H](CC(=O)O)C(=O)N[C@@H](CCC(N)=O)C(=O)NCC(=O)NCC(=O)N1CCC[C@H]1C(=O)N[C@@H](CO)C(=O)N[C@@H](CO)C(=O)NCC(=O)N[C@@H](C)C(=O)N1CCC[C@H]1C(=O)N1CCC[C@H]1C(=O)N1CCC[C@H]1C(=O)N[C@@H](CO)C(N)=O

Target: human GCG receptor (human, UniProt P47871 26-477)
Sequence (P47871 26-477): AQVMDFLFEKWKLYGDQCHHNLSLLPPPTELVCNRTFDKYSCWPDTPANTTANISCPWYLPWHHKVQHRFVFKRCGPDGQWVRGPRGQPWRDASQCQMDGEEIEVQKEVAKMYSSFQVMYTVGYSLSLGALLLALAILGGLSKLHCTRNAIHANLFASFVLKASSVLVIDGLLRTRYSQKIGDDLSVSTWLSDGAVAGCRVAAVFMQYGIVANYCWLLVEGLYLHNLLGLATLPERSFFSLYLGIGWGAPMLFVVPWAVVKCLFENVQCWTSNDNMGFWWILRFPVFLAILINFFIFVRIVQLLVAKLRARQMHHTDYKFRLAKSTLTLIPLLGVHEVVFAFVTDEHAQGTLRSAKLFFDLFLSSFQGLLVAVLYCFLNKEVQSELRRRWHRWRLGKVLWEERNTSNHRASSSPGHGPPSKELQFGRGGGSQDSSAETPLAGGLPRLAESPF
Assay: cell-based or functional assay

| Binder | in vitro Activity Compared to Native Peptide (%), vs Glucagon [%] |
| --- | --- |
| H[Aib]QGTFTSDYSKYLDEKAQKEFVQWLLDTC (bridge 16-20; not fully specified (C-terminus)) [triple agonist of SEQ ID NO: 30] | 0.7 |
| H[Aib]QGTFTSDYSKYLDEKACKDFVQWLLDGGPSSGAPPPS (bridge 16-20; not fully specified (C-terminus)) [triple agonist of SEQ ID NO: 32] | 1.7 |
| H[Aib]QGTFTSDYSIAMDEIHQKDFVNWLLAQKC (bridge 16-20; not fully specified (C-terminus)) [triple agonist of SEQ ID NO: 33] | < 0.1 |
| H[Aib]QGTFTSDYSKYLDEKRAQEFVCWLLAQKGKKNDWKHNIT-NH2 [triple agonist of SEQ ID NO: 28] | 1.6 |
| H[Aib]QGTFTSDYSKYLDEKACKEFVQWLLAQ (bridge 16-20; not fully specified (C-terminus)) [triple agonist of SEQ ID NO: 31] | 2.2 |
| H[Aib]QGTFTSDYSKYLDEKAAKEFVQWLLNTC (bridge 16-20; not fully specified (C-terminus)) [triple agonist of SEQ ID NO: 29] | 6 |
| B1 | 0.2 |
| B2 | 0.8 |

Target: T1, human GIP receptor
Assay: cell-based or functional assay

| Binder | in vitro Activity Compared to Native Peptide (%), vs GIP [%] |
| --- | --- |
| H[Aib]QGTFTSDYSKYLDEKAQKEFVQWLLDTC (bridge 16-20; not fully specified (C-terminus)) [triple agonist of SEQ ID NO: 30] | 0.8 |
| H[Aib]QGTFTSDYSKYLDEKACKDFVQWLLDGGPSSGAPPPS (bridge 16-20; not fully specified (C-terminus)) [triple agonist of SEQ ID NO: 32] | 8.8 |
| H[Aib]QGTFTSDYSIAMDEIHQKDFVNWLLAQKC (bridge 16-20; not fully specified (C-terminus)) [triple agonist of SEQ ID NO: 33] | 10.4 |
| H[Aib]QGTFTSDYSKYLDEKRAQEFVCWLLAQKGKKNDWKHNIT-NH2 [triple agonist of SEQ ID NO: 28] | < 0.1 |
| H[Aib]QGTFTSDYSKYLDEKACKEFVQWLLAQ (bridge 16-20; not fully specified (C-terminus)) [triple agonist of SEQ ID NO: 31] | 2.4 |
| H[Aib]QGTFTSDYSKYLDEKAAKEFVQWLLNTC (bridge 16-20; not fully specified (C-terminus)) [triple agonist of SEQ ID NO: 29] | < 0.1 |
| B1 | < 0.1 |
| B2 | 0.9 |

Target: human GLP-1 receptor (human, UniProt P43220 24-463)
Assay: cell-based or functional assay

| Binder | in vitro Activity Compared to Native Peptide (%), vs GLP-1 [%] |
| --- | --- |
| H[Aib]QGTFTSDYSKYLDEKAQKEFVQWLLDTC (bridge 16-20; not fully specified (C-terminus)) [triple agonist of SEQ ID NO: 30] | 142 |
| H[Aib]QGTFTSDYSKYLDEKACKDFVQWLLDGGPSSGAPPPS (bridge 16-20; not fully specified (C-terminus)) [triple agonist of SEQ ID NO: 32] | 151 |
| H[Aib]QGTFTSDYSIAMDEIHQKDFVNWLLAQKC (bridge 16-20; not fully specified (C-terminus)) [triple agonist of SEQ ID NO: 33] | 24.5 |
| H[Aib]QGTFTSDYSKYLDEKRAQEFVCWLLAQKGKKNDWKHNIT-NH2 [triple agonist of SEQ ID NO: 28] | 17.2 |
| H[Aib]QGTFTSDYSKYLDEKACKEFVQWLLAQ (bridge 16-20; not fully specified (C-terminus)) [triple agonist of SEQ ID NO: 31] | 135 |
| H[Aib]QGTFTSDYSKYLDEKAAKEFVQWLLNTC (bridge 16-20; not fully specified (C-terminus)) [triple agonist of SEQ ID NO: 29] | 38.5 |
| B1 | 64.5 |
| B2 | 83.1 |

From patent publication US20250114463A1, “LIVER-TARGETED DRUG AND USE THEREOF” (HANMI PHARM. CO., LTD., priority 2021, published 2025)
